Test results: patent EP4763867A1 (Shanghai Mabgen Biotech Ltd., dated 2026)
Where two headings read alike, the source gives them in different places.

Key:
[1] = biological target: T1, human PD-1 (SEQ ID NO: 1) expressed on cells (human, UniProt Q15116 25-288); test: cell-based or functional assay
[2] = biological target: T2, IL-2Rβ and IL-2Rγ on M07e cells (moderate-avidity IL-2 receptor IL-2Rβγ) (human, UniProt P14784 27-551; P31785 23-369); test: cell-based or functional assay
T2 sequence (looked up) 1: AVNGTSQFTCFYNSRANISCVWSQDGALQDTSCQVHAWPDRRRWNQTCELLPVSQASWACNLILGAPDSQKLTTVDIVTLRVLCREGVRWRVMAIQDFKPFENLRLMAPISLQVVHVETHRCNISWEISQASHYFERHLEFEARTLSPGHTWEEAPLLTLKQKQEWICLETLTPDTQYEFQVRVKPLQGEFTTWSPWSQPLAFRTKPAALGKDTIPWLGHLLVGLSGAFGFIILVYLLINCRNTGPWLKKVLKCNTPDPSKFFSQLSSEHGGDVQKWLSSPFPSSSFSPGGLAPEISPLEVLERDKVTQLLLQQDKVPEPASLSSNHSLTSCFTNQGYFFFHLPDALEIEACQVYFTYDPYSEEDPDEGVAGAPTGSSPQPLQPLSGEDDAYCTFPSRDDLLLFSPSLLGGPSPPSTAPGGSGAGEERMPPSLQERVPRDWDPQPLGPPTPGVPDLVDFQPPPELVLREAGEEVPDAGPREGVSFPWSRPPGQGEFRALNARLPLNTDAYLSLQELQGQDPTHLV
T2 sequence (looked up) 2: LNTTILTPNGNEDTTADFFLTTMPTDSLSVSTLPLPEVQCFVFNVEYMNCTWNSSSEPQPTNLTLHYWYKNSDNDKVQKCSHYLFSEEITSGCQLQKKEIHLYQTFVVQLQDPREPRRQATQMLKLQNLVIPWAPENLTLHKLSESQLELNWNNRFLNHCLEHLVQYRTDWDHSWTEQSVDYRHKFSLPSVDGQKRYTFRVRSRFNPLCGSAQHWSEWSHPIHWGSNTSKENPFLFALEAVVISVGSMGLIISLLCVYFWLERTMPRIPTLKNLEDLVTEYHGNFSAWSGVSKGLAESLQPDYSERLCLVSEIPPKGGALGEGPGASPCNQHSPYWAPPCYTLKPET

[3] = biological target: T1, human PD-1 (SEQ ID NO: 1) expressed on …; test: cell-based or functional assay; remark: listed apart in the source
[4] = biological target: T3, Biotinylated human PD-1 (AcroBiosystems, PD1-H82E4) (human, UniProt Q15116 25-167, biotinylated (site not stated)); test: screening of a VHH yeast display library with biotinylated antigens
T3 construct: Screening antigen of the yeast display library; also called human PD-1 antigen (screening antigen)
T3 sequence (Q15116 25-167 limits assumed): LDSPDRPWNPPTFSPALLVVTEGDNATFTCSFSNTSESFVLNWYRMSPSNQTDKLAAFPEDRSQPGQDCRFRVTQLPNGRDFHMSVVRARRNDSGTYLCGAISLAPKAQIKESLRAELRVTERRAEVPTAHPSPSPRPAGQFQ

T1 sequence (Q15116 25-288 limits assumed): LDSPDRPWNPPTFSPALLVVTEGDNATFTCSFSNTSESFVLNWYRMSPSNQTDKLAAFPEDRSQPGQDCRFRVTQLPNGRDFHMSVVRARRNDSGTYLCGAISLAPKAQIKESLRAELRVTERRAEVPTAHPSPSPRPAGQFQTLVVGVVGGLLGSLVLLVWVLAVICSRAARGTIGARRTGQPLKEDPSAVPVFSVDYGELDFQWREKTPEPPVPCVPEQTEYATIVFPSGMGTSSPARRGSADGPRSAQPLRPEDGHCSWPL

B1: A17_hIgG4 (antibody, V domains shown)
VH: EVQVVESGGGLVQPGGSLRLSCVASGLTFSDYSMSWYRQAPGKERELVAIISGSGVIAHYVDSVKGRFTISRDNAKSTVYLQMVSLKPEDRGVYYCRAVSDWDDYWGQGTQVTVSS
[1]
  activity IC50, PD-1/PD-L1 NFAT reporter gene system: 1.2 nM

B2: PEGylated IL-2 mutant (PEG-IL-2v) (ligand)
chain: APASSSTKKTQLQLEHLLLDLQMILQGISNYKNPKLTRMLTAKFYMPKKATELKHLQCLEEELKPLEEVLQGAQSKNFHLRPRDLISNINVIVLELKGSETTFMCEYADETATIVEFLNRWITFAQSIISTLT
modifications: PEGylated (site and PEG not stated)
[2]
  M07e proliferation, EC50: 20.9 nM
  M07e-hPD1 proliferation, EC50: 13.3 nM

B3: A17m0902_hIgG4 (antibody, V domains shown)
VH: EVQLVESGGGLVQPGGSLRLSCAASGLTFSDYSMSWYRQAPGKGRELVAIISGSGVITHYVDSVKGRFTISRDNAKNTLYLQMRSLRAEDTAVYYCRAVSDWEDYWGQGTQVTVSS
[3]
  activity IC50, PD-1/PD-L1 NFAT reporter gene system: 0.435 nM

B4: A17 (VHH)
VHH: B1 VH
notes: also called Variable region of A17
[4]
  binding result: binds
